# In paper PMC4386031:
# Biological target: seven of the nine datasets (monoUb and the diUb types fitted to a one-site binding model)
# Test: SPR; monoUb and all types of diUb immobilized, NZF1 (or its mutants) binding detected; one-site or two-site binding model; two experiments
substance,measurement,value
TRABID NZF1 (aa 1-33) (from UniProt Q9UGI0 1-33) (domain or fragment),Kd,190 to 370 µM
